Source: paper PMC8187593 (2021)

T1: cathepsin K mature active enzyme (Homo sapiens, UniProt P43235)
T1 chain: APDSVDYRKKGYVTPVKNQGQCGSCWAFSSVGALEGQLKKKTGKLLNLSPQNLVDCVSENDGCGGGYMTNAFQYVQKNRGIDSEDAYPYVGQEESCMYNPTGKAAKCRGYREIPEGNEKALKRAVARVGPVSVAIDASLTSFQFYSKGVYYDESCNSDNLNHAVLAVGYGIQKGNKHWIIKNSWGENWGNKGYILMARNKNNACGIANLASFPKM


Biological target: T1, cathepsin K mature active enzyme
Assay: SPR

Kd | Binder
4.2 nM | vitronectin (pVN) (protein) DQESCKGRCTDGFIAERKCQCDELCSYYQSCCTDYVAECKPQVTRGDVFLQPDDEYRAYDYHEETRHNTSVQEEQRIPVLLAKTEETPVLKPEEEAPPPGPQTDDLGVPEEELCSGKPFDAFTNLKNGSVFAFRGLYCYELDEKAVRPGYPKLIQDVWGIKGPIDAAFTRINCQGKTYLFKGSQYWRFDDGVLDPNYPREISEGFKGIPDDVDAALALPAHSYSGRERVYFFKGKQYWEYVFQQQPSREECEGSSPSDVFAHFALMQRDSWEDIFRLLFWSHSFGGAIEPRVISQDWLGLPEQVDAAMAGQIYISGSALKPSQPKMTKSARRSGKRYRSRRGRGRGRGHSRSQKSHRQSRSTWLPWFSSEETGPGGYNYDDYKMDWLVPATCEPIQSVYFFSGEEYYRVNLRTQRVDTVTPPYPRSIAQYWLGCPVPDQK
1.99 nM | vitronectin (hVN) (protein) DQESCKGRCTEGFNVDKKCQCDELCSYYQSCCTDYTAECKPQVTRGDVFTMPEDEYTVYDDGEEKNNATVHEQVGGPSLTSDLQAQSKGNPEQTPVLKPEEEAPAPEVGASKPEGIDSRPETLHPGRPQPPAEEELCSGKPFDAFTDLKNGSLFAFRGQYCYELDEKAVRPGYPKLIRDVWGIEGPIDAAFTRINCQGKTYLFKGSQYWRFEDGVLDPDYPRNISDGFDGIPDNVDAALALPAHSYSGRERVYFFKGKQYWEYQFQHQPSQEECEGSSLSAVFEHFAMMQRDSWEDIFELLFWGRTSAGTRQPQFISRDWHGVPGQVDAAMAGRIYISGMAPRPSLAKKQRFRHRNRKGYRSQRGHSRGRNQNSRRPSRATWLSLFSSEESNLGANNYDDYRMDWLVPATCEPIQSVFFFSGDKYYRVNLRTRRVDTVDPPYPRSIAQYWLGCPAPGHL
